Assay [1] addresses Type-I collagen (VitroCol, human) (human) (UniProt P02452).
Assay [2] shares this target. Description: SPR; collagen immobilised on CM5 chip at around 8000 RU; OMD or muteins injected (0.125-2 µM), 30 µl/min; PBS pH 7.4, 0.005% Tween-20, 20 °C; KD by steady state analysis; binding response at 2 µM. (In general: SPR reads the build-up and loss of mass on a sensor chip optically.)
Assay [3] addresses T1, Type-I collagen (VitroCol, human) (human, UniProt P02452 162-1218; P08123 80-1119). Description: cell-based or functional assay.
In assay [4] the target is T1, Type-I collagen (VitroCol, human). The experiment in a line: SPR; temperature dependence of the dissociation constant, van't Hoff analysis; values given at 32 °C. The conditions noted are these: both partners purified.
Assay [5] has the same target. The experiment in a line: SPR; collagen immobilised on CM5 chip at around 8000 RU; OMD or muteins injected (0.125-2 µM), 30 µl/min; PBS pH 7.4, 0.005% Tween-20, 20 °C; KD by steady state analysis; binding response at 2 µM. The conditions noted are these: both partners purified.

Broadly, the Kd is the equilibrium constant for the complex coming apart.

Changes are numbered by the printed parent chain. Names and notes keep the numbering of the source.

T1 sequence (P02452 162-1218, chain 1 of 2): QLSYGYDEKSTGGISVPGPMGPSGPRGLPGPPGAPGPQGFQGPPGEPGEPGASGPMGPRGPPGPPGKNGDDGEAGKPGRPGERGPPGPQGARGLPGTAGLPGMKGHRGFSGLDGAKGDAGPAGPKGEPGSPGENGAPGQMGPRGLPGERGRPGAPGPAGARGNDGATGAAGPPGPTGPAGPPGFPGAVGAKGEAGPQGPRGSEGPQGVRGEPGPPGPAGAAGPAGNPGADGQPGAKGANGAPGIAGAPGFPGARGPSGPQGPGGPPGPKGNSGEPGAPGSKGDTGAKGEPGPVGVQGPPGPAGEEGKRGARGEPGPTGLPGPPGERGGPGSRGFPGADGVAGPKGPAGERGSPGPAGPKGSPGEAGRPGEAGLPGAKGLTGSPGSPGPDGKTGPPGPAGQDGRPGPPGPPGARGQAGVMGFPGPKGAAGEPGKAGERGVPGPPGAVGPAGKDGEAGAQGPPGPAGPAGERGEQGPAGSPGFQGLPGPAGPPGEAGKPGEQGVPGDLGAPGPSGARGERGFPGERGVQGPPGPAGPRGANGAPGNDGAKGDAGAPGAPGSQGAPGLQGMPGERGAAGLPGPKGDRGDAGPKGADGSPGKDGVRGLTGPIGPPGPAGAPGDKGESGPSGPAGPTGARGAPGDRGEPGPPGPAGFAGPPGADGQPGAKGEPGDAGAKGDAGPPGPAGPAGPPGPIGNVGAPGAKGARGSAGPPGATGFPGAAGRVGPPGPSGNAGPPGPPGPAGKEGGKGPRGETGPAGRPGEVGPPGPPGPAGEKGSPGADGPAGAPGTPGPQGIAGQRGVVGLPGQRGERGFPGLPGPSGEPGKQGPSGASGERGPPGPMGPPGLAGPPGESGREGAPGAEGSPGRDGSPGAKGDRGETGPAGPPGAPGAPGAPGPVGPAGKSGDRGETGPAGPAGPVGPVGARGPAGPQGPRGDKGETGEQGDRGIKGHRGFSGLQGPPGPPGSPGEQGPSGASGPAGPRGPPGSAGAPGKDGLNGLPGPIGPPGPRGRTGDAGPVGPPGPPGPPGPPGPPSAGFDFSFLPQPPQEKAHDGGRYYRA
T1 sequence (P08123 80-1119, chain 2 of 2): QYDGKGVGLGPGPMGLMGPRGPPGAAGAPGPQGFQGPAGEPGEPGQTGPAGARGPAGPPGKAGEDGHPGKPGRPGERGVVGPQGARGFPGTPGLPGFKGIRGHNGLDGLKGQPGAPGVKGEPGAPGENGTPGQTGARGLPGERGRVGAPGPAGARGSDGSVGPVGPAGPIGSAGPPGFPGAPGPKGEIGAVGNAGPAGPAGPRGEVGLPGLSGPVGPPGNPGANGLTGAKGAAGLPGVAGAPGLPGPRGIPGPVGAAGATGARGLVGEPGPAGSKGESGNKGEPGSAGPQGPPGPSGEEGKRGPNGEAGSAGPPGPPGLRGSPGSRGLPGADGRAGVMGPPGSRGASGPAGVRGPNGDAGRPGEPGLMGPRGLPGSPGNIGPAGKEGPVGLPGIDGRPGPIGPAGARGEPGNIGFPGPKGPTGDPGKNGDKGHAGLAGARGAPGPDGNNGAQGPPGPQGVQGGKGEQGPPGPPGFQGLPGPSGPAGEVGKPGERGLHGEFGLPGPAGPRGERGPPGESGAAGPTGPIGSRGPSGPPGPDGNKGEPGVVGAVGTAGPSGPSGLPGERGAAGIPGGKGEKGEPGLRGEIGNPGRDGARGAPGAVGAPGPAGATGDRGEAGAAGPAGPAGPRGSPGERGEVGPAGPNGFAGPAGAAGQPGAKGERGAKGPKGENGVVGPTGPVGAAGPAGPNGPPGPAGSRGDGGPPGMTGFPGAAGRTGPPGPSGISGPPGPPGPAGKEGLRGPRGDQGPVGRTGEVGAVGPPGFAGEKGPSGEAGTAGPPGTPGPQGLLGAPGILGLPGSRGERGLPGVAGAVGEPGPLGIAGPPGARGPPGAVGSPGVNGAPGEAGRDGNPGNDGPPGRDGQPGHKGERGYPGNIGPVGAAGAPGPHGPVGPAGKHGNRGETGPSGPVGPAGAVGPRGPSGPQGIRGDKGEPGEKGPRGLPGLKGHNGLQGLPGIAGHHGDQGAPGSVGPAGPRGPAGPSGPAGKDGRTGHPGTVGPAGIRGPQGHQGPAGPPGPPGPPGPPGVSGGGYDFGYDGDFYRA
Chain of Type-I collagen (VitroCol, human) (human) (P02452 162-1218, chain 1 of 2): as the sequence (P02452 162-1218, chain 1 of 2) above
Chain of Type-I collagen (VitroCol, human) (human) (P08123 80-1119, chain 2 of 2, further chain): as the sequence (P08123 80-1119, chain 2 of 2) above

Regarding “Chimeric OMD (chOMD): N-terminal region of the leucine-rich repeat domain of internalin B fused to a large portion of OMD (from UniProt Q99983 117-364)”, in assay [1], the IC50 (µM) of inhibition of collagen fibril formation (normalized kobs, 1 µM collagen, PBS pH 7.4, 30 °C) amounted to 0.22 μM; the kobs (per h) of collagen fibril formation with 0, 0.016, 0.08, 0.4, 2 and 10 μM chOMD (0.89 down to 0.00) turned out to be 0.89 per h. In assay [2], this molecule returned a Binding (RU) at 2 µM of 118 RU and an equilibrium dissociation constant (Kd) of 25.4 µM.

As for “chOMD D254R (from UniProt Q99983 117-364)”, in assay [2], the Binding (RU) at 2 µM came out at 74.8 RU and the dissociation constant (Kd) is 22.3 µM.

In assay [2], “chOMD D271R (from UniProt Q99983 117-364)” showed a Binding (RU) at 2 µM of 71 RU and a Kd of 25.6 µM.

For the molecule “chOMD E173R (from UniProt Q99983 117-364)”, in assay [2], the Binding (RU) at 2 µM stood at 118 RU and the Kd came to 51.4 µM.

In assay [2], “chOMD E225R (from UniProt Q99983 117-364)” showed a Binding (RU) at 2 µM of 106 RU and a Kd of 29.1 µM.

In assay [1], “chOMD E284A (from UniProt Q99983 117-364)” registered an IC50 (µM) of inhibition of collagen fibril formation (normalized kobs, 1 µM collagen, PBS pH 7.4, 30 °C) of 0.32 μM; a kobs (per h) of collagen fibril formation with 0, 0.016, 0.08, 0.4, 2 and 10 μM chE284A (1.02 down to 0.00003) of 1.02 per h. Further, in assay [2], the Binding (RU) at 2 µM was 57.4 RU and the equilibrium dissociation constant (Kd) worked out at 78.3 µM.

In assay [1], “chOMD E284R (from UniProt Q99983 117-364)” came in with an IC50 (µM) of inhibition of collagen fibril formation (normalized kobs, 1 µM collagen, PBS pH 7.4, 30 °C) of 0.61 μM; a kobs (per h) of collagen fibril formation with 0, 0.016, 0.08, 0.4, 2 and 10 μM chE284R (0.90 down to 0.00028) of 0.9 per h. Also, in assay [2], the Binding (RU) at 2 µM was 22.3 RU and the dissociation constant Kd turned out to be 32000 µM.

In assay [1], “chOMD E284R/E303R (from UniProt Q99983 117-364)” displayed an IC50 (µM) of inhibition of collagen fibril formation (normalized kobs, 1 µM collagen, PBS pH 7.4, 30 °C) of 2.18 μM; a kobs (per h) of collagen fibril formation with 0, 0.016, 0.08, 0.4, 2 and 10 μM chE284R/E303R (1.00 down to 0.65) of 1 per h.

Turning to “chOMD E303A (from UniProt Q99983 117-364)”, in assay [1], the IC50 (µM) of inhibition of collagen fibril formation (normalized kobs, 1 µM collagen, PBS pH 7.4, 30 °C) stood at 0.37 μM; the kobs (per h) of collagen fibril formation with 0, 0.016, 0.08, 0.4 and 2 μM chE303A (1.32 down to 0.51; n.d. at 10 μM) is 1.32 per h.

Regarding “chOMD E303R (from UniProt Q99983 117-364)”, in assay [1], the IC50 (µM) of inhibition of collagen fibril formation (normalized kobs, 1 µM collagen, PBS pH 7.4, 30 °C) stood at 1.87 μM; the kobs (per h) of collagen fibril formation with 0, 0.016, 0.08, 0.4, 2 and 10 μM chE303R (1.35 down to 0.10) came out at 1.35 per h. In assay [2], this molecule gave a Binding (RU) at 2 µM of 3.7 RU and a Kd of 72.4 µM.

As to “chOMD E311R (from UniProt Q99983 117-364)”, in assay [2], the Binding (RU) at 2 µM turned out to be 22.6 RU and the Kd came to 5.48 µM.

On to “chOMD N278R (from UniProt Q99983 117-364)”, for which, in assay [2], the Binding (RU) at 2 µM is 47.4 RU and the equilibrium dissociation constant (Kd) stood at 14.3 µM.

B1: Osteomodulin (OMD), human, recombinant with C-terminal FLAG-tag (natural protein, UniProt Q99983 21-421, looked up)
chain: QYETYQWDEDYDQEPDDDYQTGFPFRQNVDYGVPFHQYTLGCVSECFCPTNFPSSMYCDNRKLKTIPNIPMHIQQLYLQFNEIEAVTANSFINATHLKEINLSHNKIKSQKIDYGVFAKLPNLLQLHLEHNNLEEFPFPLPKSLERLLLGYNEISKLQTNAMDGLVNLTMLDLCYNYLHDSLLKDKIFAKMEKLMQLNLCSNRLESMPPGLPSSLMYLSLENNSISSIPEKYFDKLPKLHTLRMSHNKLQDIPYNIFNLPNIVELSVGHNKLKQAFYIPRNLEHLYLQNNEIEKMNLTVMCPSIDPLHYHHLTYIRVDQNKLKEPISSYIFFCFPHIHTIYYGEQRSTNGQTIQLKTQVFRRFPDDDDESEDHDDPDNAHESPEQEGAEGHFDLHYYENQE
notes: osteomodulin (OMD), human, without residues 1-20 (signal peptide), residues 21-421; Its own signal peptide was replaced by the sp1-2 signal peptide for secretion; Carbohydrate is modelled in the crystal structure; Monomer by SEC-MALS; also called full-length OMD; WT OMD; source: Sf9 cells, baculovirus, secreted; not shown: FLAG, C-terminal, kept
Take B1: in assay [3], the “IC50 (µM) of inhibition of collagen fibril formation (normalized kobs, 1 µM collagen, PBS pH 7.4, 30 °C)” value was 0.08 μM. For the same molecule, in assay [4], the Kd came to 12 µM and the dH was 7.9 kcal/mol. This molecule also returned a dissociation constant Kd in assay [5] of 24.6 µM.

B2: OMD E284R/E303R (double mutant in the construct of full-length OMD) (natural protein, human, UniProt Q99983 21-421, looked up)
chain: B1 chain with E264R, E283R
Turning to B2, the “IC50 (µM) of inhibition of collagen fibril formation (normalized kobs, 1 µM collagen, PBS pH 7.4, 30 °C)” value in assay [3] came to 0.29 μM.

Values taken from article PMC6123635, “Molecular basis for governing the morphology of type-I collagen fibrils by Osteomodulin” (Communications Biology, 2018).
